Experimental data reported in patent publication US20230220042A1 (SHANGHAI JIAO TONG UNIVERSITY SCHOOL OF MEDICINE, published 2023).

T1: Biotin-FcγRIIB (human, UniProt P31994 43-217, limits assumed, biotin-labelled)
T1 construct: Bought, biotin-labelled; used at 1 µg/ml for staining and sorting; also called human FcγRIIB; CD32b
T1 sequence (looked up): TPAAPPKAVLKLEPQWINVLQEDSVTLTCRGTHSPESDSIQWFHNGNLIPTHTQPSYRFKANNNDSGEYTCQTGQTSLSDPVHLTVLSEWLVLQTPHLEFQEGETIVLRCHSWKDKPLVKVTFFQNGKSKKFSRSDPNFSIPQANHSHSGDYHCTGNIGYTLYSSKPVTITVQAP


Target: T1, Biotin-FcγRIIB
Assay: FACS sorting of displayed Fc library on biotin-FcγRIIB, NGS

Increased factor b Site 2 (point mutation/wild-type) | Binder | other results
0 | human IgG2 anti-mouse CD40 surface displayed antibody, Fc mutant A330R (antibody, name in EU numbering, as m1; positions are Eu numbers; copies: 2 + 2) light chain (with the P2A rest): DTVLTQSPALAVSPGERVTISCRASDSVSTLMHWYQQKPGQQPKLLIYLASHLESGVPARFSGSGSGTDFTLTIDPVEADDTATYYCQQSWNDPWTFGGGTKLELKRTVAAPSVFIFPPSDEQLKSGTASVVCLLNNFYPREAKVQWKVDNALQSGNSQESVTEQDSKDSTYSLSSTLTLSKADYEKHKVYACEVTHQGLSSPVTKSFNRGECGSGATNFSLLKQAGDVEENPG heavy chain: EVQLVESDGGLVQPGRSLKLPCAASGFTFSDYYMAWVRQAPTKGLEWVASISYDGSSTYYRDSVKGRFTISRDNAKSTLYLQMDSLRSEDTATYYCGRHSSYFDYWGQGVMVTVSSASTKGPSVFPLAPCSRSTSESTAALGCLVKDYFPEPVTVSWNSGALTSGVHTFPAVLQSSGLYSLSSVVTVPSSNFGTQTYTCNVDHKPSNTKVDKTVERKCCVECPPCPAPPVAGPSVFLFPPKPKDTLMISRTPEVTCVVVDVSHEDPEVQFNWYVDGVEVHNAKTKPREEQFNSTFRVVSVLTVVHQDWLNGKEYKCKVSNKGLPRPIEKTISKTKGQPREPQVYTLPPSREEMTKNQVSLTCLVKGFYPSDIAVEWESNGQPENNYKTTPPMLDSDGSFFLYSKLTVDKSRWQQGNVFSCSVMHEALHNHYTQKSLSLSPGKLEPPPSTVSNMATVAVLVVLGAAIVTGAVVAFVMKMRRRNTGGKGGDYALAPGSQTSDLSLPDCKVMVHDPHSLA | 
 | human IgG2 anti-mouse CD40 surface displayed antibody, Fc mutant L328E (antibody, name in EU numbering, as m1; positions are Eu numbers; copies: 2 + 2) light chain (with the P2A rest): DTVLTQSPALAVSPGERVTISCRASDSVSTLMHWYQQKPGQQPKLLIYLASHLESGVPARFSGSGSGTDFTLTIDPVEADDTATYYCQQSWNDPWTFGGGTKLELKRTVAAPSVFIFPPSDEQLKSGTASVVCLLNNFYPREAKVQWKVDNALQSGNSQESVTEQDSKDSTYSLSSTLTLSKADYEKHKVYACEVTHQGLSSPVTKSFNRGECGSGATNFSLLKQAGDVEENPG heavy chain: EVQLVESDGGLVQPGRSLKLPCAASGFTFSDYYMAWVRQAPTKGLEWVASISYDGSSTYYRDSVKGRFTISRDNAKSTLYLQMDSLRSEDTATYYCGRHSSYFDYWGQGVMVTVSSASTKGPSVFPLAPCSRSTSESTAALGCLVKDYFPEPVTVSWNSGALTSGVHTFPAVLQSSGLYSLSSVVTVPSSNFGTQTYTCNVDHKPSNTKVDKTVERKCCVECPPCPAPPVAGPSVFLFPPKPKDTLMISRTPEVTCVVVDVSHEDPEVQFNWYVDGVEVHNAKTKPREEQFNSTFRVVSVLTVVHQDWLNGKEYKCKVSNKGEPAPIEKTISKTKGQPREPQVYTLPPSREEMTKNQVSLTCLVKGFYPSDIAVEWESNGQPENNYKTTPPMLDSDGSFFLYSKLTVDKSRWQQGNVFSCSVMHEALHNHYTQKSLSLSPGKLEPPPSTVSNMATVAVLVVLGAAIVTGAVVAFVMKMRRRNTGGKGGDYALAPGSQTSDLSLPDCKVMVHDPHSLA | Increased factor b Site 1 (point mutation/wild-type): 0.1
 | human IgG2 anti-mouse CD40 surface displayed antibody, Fc mutant L328E/I332T (antibody, name in EU numbering, as m1; positions are Eu numbers; copies: 2 + 2) light chain (with the P2A rest): DTVLTQSPALAVSPGERVTISCRASDSVSTLMHWYQQKPGQQPKLLIYLASHLESGVPARFSGSGSGTDFTLTIDPVEADDTATYYCQQSWNDPWTFGGGTKLELKRTVAAPSVFIFPPSDEQLKSGTASVVCLLNNFYPREAKVQWKVDNALQSGNSQESVTEQDSKDSTYSLSSTLTLSKADYEKHKVYACEVTHQGLSSPVTKSFNRGECGSGATNFSLLKQAGDVEENPG heavy chain: EVQLVESDGGLVQPGRSLKLPCAASGFTFSDYYMAWVRQAPTKGLEWVASISYDGSSTYYRDSVKGRFTISRDNAKSTLYLQMDSLRSEDTATYYCGRHSSYFDYWGQGVMVTVSSASTKGPSVFPLAPCSRSTSESTAALGCLVKDYFPEPVTVSWNSGALTSGVHTFPAVLQSSGLYSLSSVVTVPSSNFGTQTYTCNVDHKPSNTKVDKTVERKCCVECPPCPAPPVAGPSVFLFPPKPKDTLMISRTPEVTCVVVDVSHEDPEVQFNWYVDGVEVHNAKTKPREEQFNSTFRVVSVLTVVHQDWLNGKEYKCKVSNKGEPAPTEKTISKTKGQPREPQVYTLPPSREEMTKNQVSLTCLVKGFYPSDIAVEWESNGQPENNYKTTPPMLDSDGSFFLYSKLTVDKSRWQQGNVFSCSVMHEALHNHYTQKSLSLSPGKLEPPPSTVSNMATVAVLVVLGAAIVTGAVVAFVMKMRRRNTGGKGGDYALAPGSQTSDLSLPDCKVMVHDPHSLA | Enrichment factor (after/before sorting): 55.1; Increased factor a (enrichment factor/wild-type enrichment factor): 36.9
29.9 | human IgG2 anti-mouse CD40 surface displayed antibody, Fc mutant P271C (antibody, name in EU numbering, as m1; positions are Eu numbers; copies: 2 + 2) light chain (with the P2A rest): DTVLTQSPALAVSPGERVTISCRASDSVSTLMHWYQQKPGQQPKLLIYLASHLESGVPARFSGSGSGTDFTLTIDPVEADDTATYYCQQSWNDPWTFGGGTKLELKRTVAAPSVFIFPPSDEQLKSGTASVVCLLNNFYPREAKVQWKVDNALQSGNSQESVTEQDSKDSTYSLSSTLTLSKADYEKHKVYACEVTHQGLSSPVTKSFNRGECGSGATNFSLLKQAGDVEENPG heavy chain: EVQLVESDGGLVQPGRSLKLPCAASGFTFSDYYMAWVRQAPTKGLEWVASISYDGSSTYYRDSVKGRFTISRDNAKSTLYLQMDSLRSEDTATYYCGRHSSYFDYWGQGVMVTVSSASTKGPSVFPLAPCSRSTSESTAALGCLVKDYFPEPVTVSWNSGALTSGVHTFPAVLQSSGLYSLSSVVTVPSSNFGTQTYTCNVDHKPSNTKVDKTVERKCCVECPPCPAPPVAGPSVFLFPPKPKDTLMISRTPEVTCVVVDVSHEDCEVQFNWYVDGVEVHNAKTKPREEQFNSTFRVVSVLTVVHQDWLNGKEYKCKVSNKGLPAPIEKTISKTKGQPREPQVYTLPPSREEMTKNQVSLTCLVKGFYPSDIAVEWESNGQPENNYKTTPPMLDSDGSFFLYSKLTVDKSRWQQGNVFSCSVMHEALHNHYTQKSLSLSPGKLEPPPSTVSNMATVAVLVVLGAAIVTGAVVAFVMKMRRRNTGGKGGDYALAPGSQTSDLSLPDCKVMVHDPHSLA | 
2.7 | human IgG2 anti-mouse CD40 surface displayed antibody, Fc mutant I332C (antibody, name in EU numbering, as m1; positions are Eu numbers; copies: 2 + 2) light chain (with the P2A rest): DTVLTQSPALAVSPGERVTISCRASDSVSTLMHWYQQKPGQQPKLLIYLASHLESGVPARFSGSGSGTDFTLTIDPVEADDTATYYCQQSWNDPWTFGGGTKLELKRTVAAPSVFIFPPSDEQLKSGTASVVCLLNNFYPREAKVQWKVDNALQSGNSQESVTEQDSKDSTYSLSSTLTLSKADYEKHKVYACEVTHQGLSSPVTKSFNRGECGSGATNFSLLKQAGDVEENPG heavy chain: EVQLVESDGGLVQPGRSLKLPCAASGFTFSDYYMAWVRQAPTKGLEWVASISYDGSSTYYRDSVKGRFTISRDNAKSTLYLQMDSLRSEDTATYYCGRHSSYFDYWGQGVMVTVSSASTKGPSVFPLAPCSRSTSESTAALGCLVKDYFPEPVTVSWNSGALTSGVHTFPAVLQSSGLYSLSSVVTVPSSNFGTQTYTCNVDHKPSNTKVDKTVERKCCVECPPCPAPPVAGPSVFLFPPKPKDTLMISRTPEVTCVVVDVSHEDPEVQFNWYVDGVEVHNAKTKPREEQFNSTFRVVSVLTVVHQDWLNGKEYKCKVSNKGLPAPCEKTISKTKGQPREPQVYTLPPSREEMTKNQVSLTCLVKGFYPSDIAVEWESNGQPENNYKTTPPMLDSDGSFFLYSKLTVDKSRWQQGNVFSCSVMHEALHNHYTQKSLSLSPGKLEPPPSTVSNMATVAVLVVLGAAIVTGAVVAFVMKMRRRNTGGKGGDYALAPGSQTSDLSLPDCKVMVHDPHSLA | 
 | human IgG2 anti-mouse CD40 surface displayed antibody, Fc mutant G327A (antibody, name in EU numbering, as m1; positions are Eu numbers; copies: 2 + 2) light chain (with the P2A rest): DTVLTQSPALAVSPGERVTISCRASDSVSTLMHWYQQKPGQQPKLLIYLASHLESGVPARFSGSGSGTDFTLTIDPVEADDTATYYCQQSWNDPWTFGGGTKLELKRTVAAPSVFIFPPSDEQLKSGTASVVCLLNNFYPREAKVQWKVDNALQSGNSQESVTEQDSKDSTYSLSSTLTLSKADYEKHKVYACEVTHQGLSSPVTKSFNRGECGSGATNFSLLKQAGDVEENPG heavy chain: EVQLVESDGGLVQPGRSLKLPCAASGFTFSDYYMAWVRQAPTKGLEWVASISYDGSSTYYRDSVKGRFTISRDNAKSTLYLQMDSLRSEDTATYYCGRHSSYFDYWGQGVMVTVSSASTKGPSVFPLAPCSRSTSESTAALGCLVKDYFPEPVTVSWNSGALTSGVHTFPAVLQSSGLYSLSSVVTVPSSNFGTQTYTCNVDHKPSNTKVDKTVERKCCVECPPCPAPPVAGPSVFLFPPKPKDTLMISRTPEVTCVVVDVSHEDPEVQFNWYVDGVEVHNAKTKPREEQFNSTFRVVSVLTVVHQDWLNGKEYKCKVSNKALPAPIEKTISKTKGQPREPQVYTLPPSREEMTKNQVSLTCLVKGFYPSDIAVEWESNGQPENNYKTTPPMLDSDGSFFLYSKLTVDKSRWQQGNVFSCSVMHEALHNHYTQKSLSLSPGKLEPPPSTVSNMATVAVLVVLGAAIVTGAVVAFVMKMRRRNTGGKGGDYALAPGSQTSDLSLPDCKVMVHDPHSLA | Increased factor b Site 1 (point mutation/wild-type): 3.4
16.4 | human IgG2 anti-mouse CD40 surface displayed antibody, Fc mutant I332A (antibody, name in EU numbering, as m1; positions are Eu numbers; copies: 2 + 2) light chain (with the P2A rest): DTVLTQSPALAVSPGERVTISCRASDSVSTLMHWYQQKPGQQPKLLIYLASHLESGVPARFSGSGSGTDFTLTIDPVEADDTATYYCQQSWNDPWTFGGGTKLELKRTVAAPSVFIFPPSDEQLKSGTASVVCLLNNFYPREAKVQWKVDNALQSGNSQESVTEQDSKDSTYSLSSTLTLSKADYEKHKVYACEVTHQGLSSPVTKSFNRGECGSGATNFSLLKQAGDVEENPG heavy chain: EVQLVESDGGLVQPGRSLKLPCAASGFTFSDYYMAWVRQAPTKGLEWVASISYDGSSTYYRDSVKGRFTISRDNAKSTLYLQMDSLRSEDTATYYCGRHSSYFDYWGQGVMVTVSSASTKGPSVFPLAPCSRSTSESTAALGCLVKDYFPEPVTVSWNSGALTSGVHTFPAVLQSSGLYSLSSVVTVPSSNFGTQTYTCNVDHKPSNTKVDKTVERKCCVECPPCPAPPVAGPSVFLFPPKPKDTLMISRTPEVTCVVVDVSHEDPEVQFNWYVDGVEVHNAKTKPREEQFNSTFRVVSVLTVVHQDWLNGKEYKCKVSNKGLPAPAEKTISKTKGQPREPQVYTLPPSREEMTKNQVSLTCLVKGFYPSDIAVEWESNGQPENNYKTTPPMLDSDGSFFLYSKLTVDKSRWQQGNVFSCSVMHEALHNHYTQKSLSLSPGKLEPPPSTVSNMATVAVLVVLGAAIVTGAVVAFVMKMRRRNTGGKGGDYALAPGSQTSDLSLPDCKVMVHDPHSLA | 
